Where two headings read alike, the source gives them in different places. One block for each molecule: values may come before it.
How the values were obtained:
[1] = target: T1, Thermofilum pendens pyruvate kinase (TpPK) (Thermofilum pendens, UniProt A1RX09); test: dead-end inhibition kinetics, LDH/NADH-coupled assay, […]°C, pH […]; assay type: biochemical
T1 construct: gene Tpen_0330; full-length with N-terminal His6 tag and TEV site (23 additional residues); homotetramer

[2] = target: Thermofilum pendens pyruvate kinase (Thermofilum pendens); test: native gel or EMSA; BN-PAGE, overnight at 4°C, 150 μg of TpPK; RMPK as molecular weight marker; native band of approximately 200 kDa
[3] = substrate: C=C(OP(=O)(O)O)C(=O)O; test: purified protein; conditions: Mg2+ active site; random-order binding with ADP-Mg
[4] = substrate: Nc1ncnc2c1ncn2[C@@H]1O[C@H](COP(=O)(O)OP(=O)(O)O)[C@@H](O)[C@H]1O; test: initial velocity kinetics (Km), LDH/NADH-coupled assay; assay type: biochemical, Thermofilum pendens; conditions: Mg2+ active site; random-order binding with PEP

Molecule: Nc1ncnc2c1ncn2[C@@H]1O[C@H](COP(=O)(O)O)[C@@H](O)[C@H]1O [AMP]
- Ki ([1]; read-out: K i (AMP)): 35 ± 1.2 mM

B1: Thermofilum pendens pyruvate kinase (TpPK) (Thermofilum pendens Hrk 5) (protein)
chain: MAKVKLVATLGPSSWSEETMKRMVAEGVNAFRLNFSHVDYARFEELAKQVRRLETPLRPLTLIADLQGPVIRLGEFAPFQVRPGDRVTFTLSSKTEEKYAVPVPNGVFFEIVREGDEVLVEGGRLAFRIVDAGPEKAVGEALLEGEVKPRKTVTVRGKDIPLPTITEKDLRDIEFSVKAGFDAIALSFVRSSSDVQRLRDILFDYGAEDVKIIAKIETKSAVEDLDSILQKSDAALVARGDLANFYGLEEIYSIQRYIISRARRFGKPSIVATQLLESMISNPLPTRSEVVDVITAVRMGADALLLAGETAAGKYPVESVYWLRRIVEEAEREPLEVEDVAPDKSDLYESIAKGVVSLAEVISGKIIAFSEKGNTARRISKFRPKAGLIVFTNDPATARYVNMIYGVRVVYDPSLSKADQNLFSKMLSKALEHNLVNLGDLVVFTSGRRRGSTDLVSVERVKSE
notes: full-length with N-terminal His6 tag and TEV site (23 additional residues); homotetramer
- Km [3]: 380 ± 30 µM
- Km [4]: 160 ± 10 µM

Further lines, results first:

- Ki ([1]; read-out: K i (oxalate)): 0.05 ± 0.002 mM
Molecule: O=C(O)C(=O)O [oxalate]

- stoichiometry N [2]: 4
Molecule: Thermofilum pendens pyruvate kinase (enzyme)
